The target of this series is T1, CsARF5-HIS (Cucumis sativus, UniProt A0A0A0LE69 1-948).
T1 sequence: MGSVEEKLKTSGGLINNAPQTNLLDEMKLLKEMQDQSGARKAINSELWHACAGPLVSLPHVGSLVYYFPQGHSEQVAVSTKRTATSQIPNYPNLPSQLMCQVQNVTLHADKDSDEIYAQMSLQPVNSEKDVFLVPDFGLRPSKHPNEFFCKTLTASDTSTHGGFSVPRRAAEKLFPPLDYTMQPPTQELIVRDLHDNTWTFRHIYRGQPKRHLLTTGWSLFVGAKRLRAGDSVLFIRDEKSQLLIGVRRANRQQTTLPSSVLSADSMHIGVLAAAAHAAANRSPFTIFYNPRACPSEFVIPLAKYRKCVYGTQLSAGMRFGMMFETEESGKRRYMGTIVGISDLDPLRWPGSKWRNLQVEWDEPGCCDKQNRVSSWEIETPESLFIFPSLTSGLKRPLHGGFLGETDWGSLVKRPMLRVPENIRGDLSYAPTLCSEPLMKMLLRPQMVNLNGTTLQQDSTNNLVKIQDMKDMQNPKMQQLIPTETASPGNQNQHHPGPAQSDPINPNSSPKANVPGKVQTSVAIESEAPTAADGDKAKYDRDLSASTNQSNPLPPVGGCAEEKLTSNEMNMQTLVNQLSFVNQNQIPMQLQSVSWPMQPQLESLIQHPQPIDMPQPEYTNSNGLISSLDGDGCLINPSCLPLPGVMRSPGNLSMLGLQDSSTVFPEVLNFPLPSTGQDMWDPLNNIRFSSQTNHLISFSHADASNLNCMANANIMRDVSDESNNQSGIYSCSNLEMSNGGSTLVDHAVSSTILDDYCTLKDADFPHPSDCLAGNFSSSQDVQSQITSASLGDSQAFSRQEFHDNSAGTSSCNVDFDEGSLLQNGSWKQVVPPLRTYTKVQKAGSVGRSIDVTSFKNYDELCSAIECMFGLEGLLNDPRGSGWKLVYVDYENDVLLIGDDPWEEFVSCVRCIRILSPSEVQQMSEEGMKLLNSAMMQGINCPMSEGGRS
Put plainly: EMSA; EMSA: protein and probe incubated at 24 °C for 30 min, nondenaturing acrylamide gel; buffer, salt and pH not stated. The note with it: protein: recombinant; tags: His; label: biotin. (In general: In EMSA bound probe runs differently from free probe, usually more slowly.)

Consider one molecule from article PMC8706816, “Hydrogen Sulfide Improves the Cold Stress Resistance through the CsARF5-CsDREB3 Module in Cucumber”.

B1: CsDREB3 promoter probe (dsDNA)
DNA 1: ATCGGGGTAAGAGACATTAAGAAACA
DNA 2: TGTTTCTTAATGTCTCTTACCCCGAT
Take B1: the binding result is reported as “binds”.
